Source: patent publication US8476072B2, “Meganuclease recombination system” (Cellectis, priority 2008, dated 2013)

Test system: cGPS CHO-K1 cells
Experiment: Gene targeting (KI assay) of lacZ integration matrix in cGPS CHO-K1 cells, double G418/puromycin selection
Type: cell-based
Conditions: cGPS CHO-K1, pTV-DS-lacz integration matrix, G418 + puromycin selection
Procedure: Transfection: On D day, 0.5 μg of the pTV-DS-lacz (SEQ ID NO: 17) is transfected in cGPS CHO-K1 cells by using the PolyFect® reagent from Qiagen. One day after the transfection of the integration matrix (D+1), 1000 μg of the purified DPV15b/I-CreI N75/6× His (SEQ ID NO: 58) meganuclease protein is directly added into transfected cGPS CHO-K1 cells.
Selection: cGPS CHO-K1 cells are transfected with the protocol described above. 24 hours after transfection, the cells are washed and fresh medium supplemented with 0.6 mg/ml of G418 is added. After 10 days of G418 selection, the culture medium is replaced with complete medium supplemented with G418 at 0.6 mg/ml and puromycin at 10 μg/ml. 3 to 4 days later, double resistant clones are visualized through an inverted microscope. At this step, double resistant clones are either stained for lacz expression monitoring or picked up for amplification and molecular characterization. (see section 2.5)
X-gal staining: Culture medium is removed and LacZ-targeted double resistant cGPS CHO-K1 adherent cells are washed once with PBS. 5 ml of fixing buffer (100 mM phosphate buffer, 1 mM MgCl2, 0.5% (v/v) glutaraldehyde (Prolabo, 25% solution)) is added. After 10 min. of incubation on ice, fixing is replaced by 5 ml of washing buffer (100 mM phosphate buffer, 1 mM MgCl2, 0.02% (v/v) NP40). […]

B1: DPV15b/I-CreI N75/6× His: purified recombinant I-CreI N75 meganuclease with cell-penetrating peptide DPV15b fused at N-terminal and 6x histidine tag at C-terminal (protein)
chain: MGAYDLRRRERQSRLRRRERQSRNTKYNKEFLLYLAGFVDGDGSIIAQIKPNQSYKFKHQLSLTFQVTQKTQRRWFLDKLVDEIGVGYVRDRGSVSNYILSEIKPLHNFLTQLQPFLKLKQKQANLVLKIIEQLPSAKESPDKFLEVCTWVDQIAALNDSKTRKTTSETVRAVLDSLSEKKKSSPAAALEHHHHHH
- number of double resistant cell colonies generated: around 30
- selection frequency: 3×10^−4
